This is an account of results in patent publication US9629910B2, “Use of Th9 cells and IL-9 for the treatment of melanoma” (THE BRIGHAM AND WOMEN'S HOSPITAL, INC., priority 2011, dated 2017).

For one experiment, the system named is B16F10 melanoma cells. Description: B16F10 melanoma growth in mice treated with rIL-9 (i.p.). It counts as in vivo. As for the experimental part:
(§1) Melanoma cell lines (B16F10 cells or B16F10-ova cells), T cell lymphoma (EL-4 or ovalbumin expressing EL-4 (EG-7)) and Lewis lung carcinoma (LLC1) were grown in RPMI1640 supplemented with 10% FBS, and penicillin/streptomycin. B16F10 cells (2-4×10^5 cells/150 μl/mouse), EL-4 (2×10^5 cells/150 μA/mouse), or LLC1 (5×10^5 cells/150 μA/mouse) were injected subcutaneously into the right or left flank of the mice and tumor development was monitored over time. Tumor volume was calculated by following formula: (major circumference×minor circumference^2)/2. Mice were sacrificed when there was external necrosis or/and tumor volume reached no greater than 2 cm in any direction.
(§2) rIL-9 (5 μg/100 μA PBS/mouse from Cell Sciences, USA) was injected (ip) from day 0 and every third day till the termination of the experiment. In lewis lung carcinoma (LLC-1) model, rIL-9 (50 ng/100 μl PBS/mouse from RnD systems) was used on every alternate day till the termination of experiment. Unlike Cell Science rIL-9 (source: E. coli), rIL-9 from RnD systems is glycosylated and therefore has stronger biological activity compared to Cell Sciences. Thus, 100 times less rIL-9 was used in LLC-1 tumor model experiments compared to melanoma model experiments.

Experiment [1] has as its system Lewis lung carcinoma (LLC-1) cells. The experiment can be described thus: Lewis lung carcinoma (LLC-1) tumor growth in mice treated with rIL-9. Type of experiment: in vivo. As for the experimental part:
as §1, §2

In a further experiment the test system is EL-4 T lymphoma cells. Description: EL-4 tumor growth in mice treated with IL-9. Type of experiment: in vivo. The settings on record: IL-9 treatment (data not included). On the procedure:
as §1

A further experiment concerns B16F10 cells. The experiment can be described thus: Growth curve assay of tumor cells with rIL-9 (crystal violet). Type of experiment: cell-based, mouse. The settings on record: melanoma cells and lung carcinoma cells, rIL-9 at different concentrations (FIG. 10D). As for the experimental part: Effect of rIL-9 on growth of B16F10 cells were studied by growth curve assay. B16F10 cells were seeded with rIL-9. After each incubation period cells were fixed (10% acetic acid in 10% ethanol). Cells were subsequently stained with 0.4% crystal violet in 10% ethanol for 30 min. Subsequently, 200 μl 10% acetic acid was added. After 30 min, 100 μL solution was transferred into 96-well plate and OD was measured at 595-wavelength.

B1: rIL-9: recombinant interleukin-9 cytokine from Cell Sciences, injected ip 5 μg/mouse in melanoma model (protein, UniProt P15247 19-144, looked up)
Interleukin-9: QRCSTTWGIRDTNYLIENLKDDPPSKCSCSGNVTSCLCLSVPTDDCTTPCYREGLLQLTNATQKSRLLPVFHRVKRIVEVLKNITCPSFSCEKPCNQTMAGNTLSFLKSLLGTFQKTEMQRQKSRP
B1: the melanoma growth result is reported as “significantly slowed melanoma growth” in the experiment on B16F10 melanoma cells (Rag1-/- C57BL/6 mice (lack T and B cells), rIL-9 vs PBS (FIG. 5D)); “impaired melanoma growth” in the experiment on B16F10 melanoma cells (normal WT mice, B16F10 s.c., rIL-9 i.p. vs PBS (FIG. 5B)). Also, the tumor development result was “no significant difference in tumor development” in the experiment with B16F10 melanoma cells (mast cell deficient mice (Kit W-sh), B16 melanoma, vs control (FIG. 5E)) and “no significant difference in tumor development” in experiment [1] (mast cell deficient mice (Kit W-sh), LLC-1, vs control (FIG. 5F)). Moreover, the survival of mice result with B16F10 melanoma cells (melanoma bearing mice, rIL-9 (data not shown)) is “increased the survival of mice”. Moreover, in the experiment on B16F10 melanoma cells (mice vaccinated with 1 million irradiated melanoma cells, melanoma cells injected 7 days later, rIL-9 vs PBS), the “melanoma growth in vaccinated mice” value was “significantly slower melanoma growth”. Besides, the LLC-1 tumor development entry in experiment [1] (normal WT mice, rIL-9 vs control group (FIG. 5C)) was “significantly suppressed”. In addition, the EL-4 tumor growth result in the experiment on EL-4 T lymphoma cells is “neither inhibition nor acceleration”. In addition, the “tumor cell growth in vitro” value in the experiment on B16F10 cells is given as “does not affect the growth of these cells in vitro”.
